Test results published in publication PMC4336473, “Role of L-alanine for redox self-sufficient amination of alcohols” (Microbial Cell Factories, 2015).

B1: TaCv (transaminase from Chromobacterium violaceum) (Chromobacterium violaceum ATCC 12472) (protein)
chain: MQKQRTTSQWRELDAAHHLHPFTDTASLNQAGARVMTRGEGVYLWDSEGNKIIDGMAGLWCVNVGYGRKDFAEAARRQMEELPFYNTFFKTTHPAVVELSSLLAEVTPAGFDRVFYTNSGSESVDTMIRMVRRYWDVQGKPEKKTLIGRWNGYHGSTIGGASLGGMKYMHEQGDLPIPGMAHIEQPWWYKHGKDMTPDEFGVVAARWLEEKILEIGADKVAAFVGEPIQGAGGVIVPPATYWPEIERICRKYDVLLVADEVICGFGRTGEWFGHQHFGFQPDLFTAAKGLSSGYLPIGAVFVGKRVAEGLIAGGDFNHGFTYSGHPVCAAVAHANVAALRDEGIVQRVKDDIGPYMQKRWRETFSRFEHVDDVRGVGMVQAFTLVKNKAKRELFPDFGEIGTLCRDIFFRNNLIMRACGDHIVSAPPLVMTRAEVDEMLAVAERCLEEFEQTLKARGLA
notes: full length, codon-optimized, untagged by primers (pTrc99A-taCv), E. coli W3110 crude extract
B2: TaVf (transaminase from Vibrio fluvialis) (Vibrio fluvialis) (protein)
chain: MNKPQSWEARAETYSLYGFTDMPSLHQRGTVVVTHGEGPYIVDVNGRRYLDANSGLWNMVAGFDHKGLIDAAKAQYERFPGYHAFFGRMSDQTVMLSEKLVEVSPFDSGRVFYTNSGSEANDTMVKMLWFLHAAEGKPQKRKILTRWNAYHGVTAVSASMTGKPYNSVFGLPLPGFVHLTCPHYWRYGEEGETEEQFVARLARELEETIQREGADTIAGFFAEPVMGAGGVIPPAKGYFQAILPILRKYDIPVISDEVICGFGRTGNTWGCVTYDFTPDAIISSKNLTAGFFPMGAVILGPELSKRLETAIEAIEEFPHGFTASGHPVGCAIALKAIDVVMNEGLAENVRRLAPRFEERLKHIAERPNIGEYRGIGFMWALEAVKDKASKTPFDGNLSVSERIANTCTDLGLICRPLGQSVVLCPPFILTEAQMDEMFDKLEKALDKVFAEVA
notes: full length, untagged by primers (pTrc99A-taVf), E. coli W3110 crude extract

What was measured:
[1] = substrate: C[C@H](N)C(=O)O; assay: HPLC of hexylamine formation, crude extract; type: biochemical, Chromobacterium violaceum; conditions: 10 mM hexanal as acceptor, potassium phosphate pH 7.4 (50 mM in results, 100 mM in methods), 37°C
Excerpt: HPLC of hexylamine formation, crude extract on TaCv (transaminase from Chromobacterium violaceum)

[2] = substrate: C[C@H](N)C(=O)O; assay: HPLC of hexylamine formation, crude extract; type: biochemical, Vibrio fluvialis; conditions: 10 mM hexanal as acceptor, potassium phosphate pH 7.4 (50 mM in results, 100 mM in methods), 37°C
Excerpt: HPLC of hexylamine formation, crude extract on TaVf (transaminase from Vibrio fluvialis)

Protein	Km [1] [mM]	Vmax [1] [µmol/min/mg]	Km [2] [mM]	Vmax [2] [µmol/min/mg]
B1	35.00 ± 2.20	2	–	–
B2	–	–	20.00 ± 1.10	0.3
